From the DeepSol protein solubility set come the findings set out here.

This data set is described as follows: soluble on expression in E. coli; label from the status in PepcDB or PDB records.
As for “MSLDKVLVGYWHNWKSTGKDGYKGGSSADFNLSSTQEGYNVINVSFMKTPEGQTLPTFKPYNKTDTEFRAEISKLNAEGKSVLIALGGADAHIELKKSQESDFVNEIIRLVDTYGFDGLDIDLEQAAIEAADNQTVIPSALKKVKDHYRKDGKNFMITMAPEFPYLTSSGKYAPYINNLDSYYDFINPQYYNQGGDGFWDSDLNMWISQSNDEKKEDFLYGLTQRLVTGTDGFIKIPASKFVIGLPSNNDAAATGYVKDPNAVKNALNRLKASGNEIKGLMTWSVNWDAGTNSNGEKYNNTFVNTYAPMLFNNEGIITITTDPNSSSVDKLAAALEHHHHHH”, the “soluble on expression in E. coli” value is “soluble”.

In the case of “MGSDKIHHHHHHMKVTLIGIDLAKNVFQVCGINQAGKSVFNRALKRSQLMAFLFKYPDSIIAMEACSGSNYWGRELLTKGFEVRLIPPQHVKPFVKGNKNDRNDAFAICEAALRPNLTFVQPRTLEQTDMILAHRIRERNVENRTSLINQIRGLLNEYGVVIAQGKERLKLAIPELLENADSGLTEIARQHFQALLEEWKQVDRTIKNLEKNIKSQAKLNHQTNRLMGIKGVAEITATAAVAFAGNGAQYHNGRHFAANLGLVPREYSSGGKQKLGKITKRGNNYLRRLLVQGAWSIIRYVGNSTDRMSVWAKKLIERRGKHKAAVAVANKLARIIWSMLYNQTEYRAN”, the “soluble on expression in E. coli” value was “not soluble”.

Turning to “MSLQRLNVEFRSEGVALRGWLYLPEARAERPAIVMTHGFSGVKEQYLDRYAEVFAAAGFVVLLYDHPNFGDSDGEPRQEIDPVMQRRGYRDAITWLGAQARVDASRIGIWGTSYSGGHVLEVAALDRRVKCVVAQVPTVSGHASALRRTRAEQLPALLASFDADRQRRFEGLPPALLPAVAASPDEPCAMAGADAHRFFTDSAALAPNWCNRVTLRSAELARENEPGIHIGRISPTPLLMIVADRDLLTPTDLCLEAYQRALPPKRLLMLAGGHFTPYIEHFDATSQAAADWFVRHLGEGGEQPATVVEEGGSHHHHHH”, the “soluble on expression in E. coli” value is on record as “soluble”.

On to “MGSDKIHHHHHHMISQFIDRKRELAILEREWKNTPSFVVIYGRRRVGKTRLLVEFSKGKKVFFYTFMEGTKESQVKSLAKELVDFFNDEIFLSFSDWYPLFKYLSGKLMEKTLFVFDEFTYAVKSDRSILSALQRVWDHELSYKPVMLVLSGSLMGIMEDNVLSHSSPLYGRRTAGFRLRSLGLFPSLRFFKSPIEGLKFYMLLGGIPAYLIIASRYETVGEFVEREFLTPEGYFYDEPYIVLSELKELKTYFSILSAMSSGRRRPSEIASEVGLEGRKIYPYLETLIRLGFVERELPIARKEKRGLYRISDPMLMSWFSLIYPNRTEIELGTITLERVEKILQRIFSFRFEDVSREFLVEMNKAGKLPFRFTKIGRWWYKGEEIDLVALNEDEEKALFIEVKWKDLKEREVKGILKDLEKKAGLVGLDGWDKNYGLIEKSIERKEKLREENYLVWDLKDFDALKILSQ”, for which the “soluble on expression in E. coli” value is “not soluble”.

As to “MIRQVIQRISNPEASIESLQERRFWLQCERAYTWQPIYQTCGRLMAVELLTVVTHPLNPSQRLPPDRYFTEITVSHRMEVVKEQIDLLAQKADFFIEHGLLASVNIDGPTLIALRQQPKILRQIERLPWLRFELVEHIRLPKDSTFASMCEFGPLWLDDFGTGMANFSALSEVRYDYIKIARELFVMLRQSPEGRTLFSQLLHLMNRYCRGVIVEGVETPEEWRDVQNSPAFAAQGWFLSRPAPIETLNTAVLAL”, the “soluble on expression in E. coli” value is recorded as “not soluble”.

Consider “GKGLGRRVLSINEIVGYDAVNQAFNFMDIFKWDPATDTFKFTGKNNSYLLEHKIAPRMGIPETQVRKIYSELDRRSKILRKIHQANITNFYDLFTTLIQLEEAGVIS”, for which the “soluble on expression in E. coli” value is listed as “not soluble”.

Consider “MKHMLIAGGGIGGLSAAISLRKAGFSVTLCEAASENRKTGAGILQPQNALAVLKELGVFEDCCKHGFQTEWFKTFDEQGNLLFQVSESFLDDSLPGRNNILRKTLNDILMKHAEAVGVDIKWGKKVVAYEETAESVTALCEDGEKMQADILAGFDGIHSVVRDKMLQKETEKEHLGMGAWRFYIELPDYTFEDATFMYRSGDTQIGVVPLAQHAGYVFVLQPCTSDYWDEEDTRFDRVKEILSGFRGLDFVTKHMSKQHPVIFNKLEQVAVQEPWHKGRVIIGGDAAHAGAPTLAQGAAMAIEDAIVLAEELQNHADHETALQAYYKRRAPRALKVQNLSSEIVRRRLKGEPGAEELIGECYAVLREGYLEHHHHHH”, for which the “soluble on expression in E. coli” value was “not soluble”.

As for “GPGSMRYRLRLDAFAPAGSLPCCRILTQVRNLNMNRSVQTRWESDNQVASQKRTDYDFDKEQWSKQMRFASMDCVMDPDITPIKYTSVTGLKKVLRRFMTMRKLIDRRPDFKTDDLKKLFIQLKTISHSRSLEDLKVLQRLTTHGEASRISKEIKTRMNDEFAKKSWKSLKMQEVSNTYQIELDSFQLVNCYMGQMSKEDWLQITYKCEFRERKGDNEEWQSVCEYPVFEVRLGDGVQSPNTHHFIIVGIMRKDGTRYGKDAQDAASLRKQFDRSRKWF”, the “soluble on expression in E. coli” value is “not soluble”.

Turning to “MGSDKIHHHHHHMRRLNRKNNEALKKLNDRQRKVLYCIVREYIENKKPVSSQRVLEVSNIEFSSATIRNDMKKLEYLGYIYQPHTSAGRIPTDKGLRFYYEEMLKISKETSEADLAVETFKSMPLADPEKVLFLAGNLLARLTEGYVLIERPNTRDLKILRVMLIPVSEDYLIFSILTEFGVSKVTPIKTQERLNWEEIERQLNFLLRGRTVGEVLMGKIESLKGSGFLRLIESLIGETVERYLDAGLENLLKDETLTLEDIRNLLEEVKDQKFLESLVGEGITVRIGREIGRKKLEKFAVFSGKYFKGESPIGSVYLFTSKVTKYDRNHRVFEYILNRLSEYFTSTSRR”, the “soluble on expression in E. coli” value is reported as “not soluble”.

On to “TEQPCVEKAPAYQRFHALAQPGLPGLVLPYKYQVLVEMFRSMDTIVSMLHNRSETVTFAKVKQGVQEMMRKRFEERNVGQIKTVYPTSYRFRQECNVPTFKDSIKRSDYQLTIEPLLGQEAGGATQLTATCLLQRRQVFRQNLVERVKEQHKVFLASLNPPMAVPDDQLTRWHPRFNVDEVPDIEPAELPQPPVTEK”, for which the “soluble on expression in E. coli” value is reported as “soluble”.

As for “MGSDKIHHHHHHMSEEIELKFIVHPDSVESLLTQLAEWESDYSQYEHMRAQRLSNIYYETADNYLRRNGIGLRIRGENERYEMTAKTAGKVIGGLHQHPEYNVALETAELDLSLFPAEIWPEDCDVKTLQPSLNPLFSTDFTREKWVFTYYQSVIEVALDRGEIRAGDLSEPLCELEMELKVGQTTHLLALAKEIAEFGGMRQGSLSKAARGYHLAKGNPVRECLPLNRLVVDSKTNIDQAIRAALELALSHWQYHEELWVRGDSSAREALPQASALMREMLVLVGGVVLRRVTTLFRSALSTLENRLQGSGGSEICYSTDYLQSKLVLTSWLVESGWRDYMDNKDRIKLQGSFKRFADIMLSRSTAELKSAFSSKLTAEQYEQQIPRLQRNLYAFLLLSGAYPADQVEAYVEHWQTLLQEIEHLAVDQAPSVYLEAYRKEVLTLPPFWLHSGGPSQ”, the “soluble on expression in E. coli” value is given as “not soluble”.

For the sequence “MILETISKQLQEQQESLNKDYRKKLESIKERSDRLESDLKTQFDAQLEKWEQNFKGYEQQLTDILNEREQLDLDQQRLNAQKQALENHMKQREE”, the “soluble on expression in E. coli” value was “not soluble”.

For the sequence “MVWLANPERYGQMQYRYCGKSGLRLPALSLGLWHNFGHVNALESQRAILRKAFDLGITHFDLANNYGPPPGSAEENFGRLLREDFAAYRDELIISTKAGYDMWPGPYGSGGSRKYLLASLDQSLKRMGLEYVDIFYSHRVDENTPMEETASALAHAVQSGKALYVGISSYSPERTQKMVELLREWKIPLLIHQPSYNLLNRWVDKSGLLDTLQNNGVGCIAFTPLAQGLLTGKYLNGIPQDSRMHREGNKVRGLTPKMLTEANLNSLRLLNEMAQQRGQSMAQMALSWLLKDDRVTSVLIGASRAEQLEENVQALNNLTFSTKELAQIDQHIADGELNLWQASSDK”, the “soluble on expression in E. coli” value was “soluble”.

Turning to “KVDKKTYKNLIVELQQRMREIQFALYERKIPLVLVFEGMDAAGKGGNIKRIREKLDPTGYEVNGISAPTDVELKHHYLWRFAKKMPKSGHIEIFDRSWYGRVLVERVEGFASQNEWQRASDEINQFEKMWTDEGTIILKFFLCLDKDEQLKRFKDRENNPDKQWKITEEDWRNREKWDEYLEASHDMIESTNTSYAPWYIVPADHKKTSRIEVLKTIIRKCEEVLWGVKTY”, the “soluble on expression in E. coli” value is listed as “not soluble”.

With “MSEILVLNCGSSSVKFALINPHTSQSLVTGLAENIATKNCKVVFKAEHKIVKYLENGSYKDVFEMLKDFLVENKHLEKIVAIGHRVVHGGQYFSKSVLINADSLEKIKACIALAPLHNPAHIEGIRFCQQIFPELPQVAVFDTAFHQTMPSYIAEYAIPYELTHKHNIRKYGAHGTSHKYVSEQAAKILTQQKANVIVAHLGNGCSITAVVDGKSIDTSMGLTPLDGLVMGTRSGCIDPSIFAYISDNLGWSVTEITNMLNKQSGLLGICGHNDMREVSQLAAKGDSLAKLAIEIFSHRVAKFVASYMIYFNKLDALVFTGGIGENAANIRKNIISKLANLGFMIDHQKNSNSETFINSKNSHNIMVIATNEELMIAQETQNLI”, the “soluble on expression in E. coli” value is listed as “soluble”.

With “SLRYIRQLCCVSLLCLSGSAVAANVRLQVEGLSGQLEKNVRAQLSTIESDEVTPDRRFRARVDDAIREGLKALGYYQPTIEFDLRPPPKKGRQVLIAKVTPGVPVLIGGTDVVLRGGARTDKDYLKLLDTRPAIGTVLNQGDYENFKKSLTSIALRKGYFDSEFTKAQLGIALGLHKAFWDIDYNSGERYRFGHVTFEGSQIRDEYLQNLVPFKEGDEYESKDLAELNRRLSATGWFNSVVVAPQFDKARETKVLPLTGVVSPRTENTIETGVGYSTDVGPRVKATWKKPWMNSYGHSLTTSTSISAPEQTLDFSYKMPLLKNPLEQYYLVQGGFKRTDLNDTESDSTTLVASRYWDLSSGWQRAINLRWSLDHFTQGEITNTTMLFYPGVMISRTRSRGGLMPTWGDSQRYSIDYSNTAWGSDVDFSVFQAQNVWIRTLYDRHRFVTRGTLGWIETGDFDKVPPDLRFFAGGDRSIRGYKYKSIAPKYANGDLKGASKLITGSLEYQYNVTGKWWGAVFVDSGEAVSDIRRSDFKTGTGVGVRWESPVGPIKLDFAVPVADKDEHGLQFYIGLGPEL”, the “soluble on expression in E. coli” value is recorded as “soluble”.

On to “GSRPGPASQLPRFVRVNTLKTCSDDVVDYFKRQGFSYQGRASSLDDLRALKGKHFLLDPLMPELLVFPAQTDLHEHPLYRAGHLILQDRASCLPAMLLDPPPGSHVIDACAAPGNKTSHLAALLKNQGKIFAFDLDAKRLASMATLLARAGVSCCELAEEDFLAVSPSDPRYHEVHYILLDPSCSGSGMPSRQLEEPGAGTPSPVRLHALAGFQQRALCHALTFPSLQRLVYSTCSLCQEENEDVVRDALQQNPGAFRLAPALPAWPHRGLSTFPGAEHCLRASPETTLSSGFFVAVIERVEVPRRARG”, for which the “soluble on expression in E. coli” value is on record as “soluble”.

Regarding “MGSDKIHHHHHHMRFMLYEFLKNNYKEAEPIFFSDIVIEGITKSAVNQQLKKLCDEGKLQKYENGIYYLPKKSRLKTNVGVNADMVARYKYVSRGGKVDGFYSGNTFANQLGISTQVPNKVEIVSNNMAAKIREIPIGKRTFIVRRPVVPVNEENVYVLQLLDLLKNLDMYLDESYDVAHDKVSQFVQIHGITKNDVDSYIREFPIAIFRYYYELRLDDVFA”, the “soluble on expression in E. coli” value is listed as “not soluble”.

Regarding “MSLDDQITNAAEKGVTDRFYGLIPNGYLFIENGLISAFGPMSALQENLTNSTAMSQIDDAIDAAGRLLTPALIDCHTHVVYGGHRALEFEMRLKGASYAEMAKAGGGIVSTVSATRSQSVEQLVQGALARVDALIAEGISLIEIKSGYGLDIETELRMLRAARSIEAARPVRVITSFLGAHAMPPGEDMSPEGYIEKTCIPALHQAHKEGLVDAVDGFCESIAFSADQIVPLFNVAAELGLPVKLHAEQLTRCGGSLLAASHKALSVDHVEYANKEDVRALAAAGCSAVLLPGAFYTLRETQKPPVALFRDQGVPMAIATDANPGSSPMTSLLLAMNMGCTLFGMTPYEALAGVTRNAARALGVSDSGMLRPGLRADLALWDVAHPAELAYRIGFNPLHRRIFGGQIAEGHHHHHH”, the “soluble on expression in E. coli” value is “soluble”.
